Measurements taken from publication PMC12216052 (Nature Communications, 2025).

Molecular target: T1, Notch1(EGF1-36) (amino acids 20-1426) (human, UniProt P46531 20-1426, biotin, chemically at the N-terminus (EZ-Link Sulfo-NHS-Biotin))
T1 construct: NOTCH1, human, EGF1-36, amino acids 20-1426; also called NOTCH1 ECD; source: Tni insect cells (baculovirus), purified (nickel chromatography with 1 mM calcium, SEC), chemically biotinylated
Assay: SPR; ~300 RU biotinylated NOTCH1(EGF1-36) on a streptavidin chip; DLL4(N-5) or DLK1 ECD as analyte; HBS-P20-BSA with 1 mM CaCl2; reference: ZNRF3 ECD
Details: both partners purified

B1: Human DLL4 (N-EGF5, amino acids 27-400) (domain or fragment, UniProt Q9NR61 27-400, looked up)
chain: SGVFQLQLQEFINERGVLASGRPCEPGCRTFFRVCLKHFQAVVSPGPCTFGTVSTPVLGTNSFAVRDDSSGGGRNPLQLPFNFTWPGTFSLIIEAWHAPGDDLRPEALPPDALISKIAIQGSLAVGQNWLLDEQTSTLTRLRYSYRVICSDNYYGDNCSRLCKKRNDHFGHYVCQPDGNLSCLPGWTGEYCQQPICLSGCHEQNGYCSKPAECLCRPGWQGRLCNECIPHNGCRHGTCSTPWQCTCDEGWGGLFCDQDLNYCTHHSPCKNGATCSNSGQRSYTCTCRPGYTGVDCELELSECDSNPCRNGGSCKDQEDGYHCLCPPGYYGLHCEHSTLSCADSPCFNGGSCRERNQGANYACECPPNFTGSNCE
notes: Delta-like 4 (DLL4), human, N-EGF5, amino acids 27-400; also called DLL4(N-5); source: Tni insect cells (baculovirus), purified (nickel chromatography, SEC)
Q: Does B1 bind?
A: binds
